Results as given in patent publication US20210130436A1 (published 2021).

How the values were obtained:
human PD-L1 [1] = biological target: T1, human PD-L1 (human, UniProt Q9NZQ7 19-290); test: flow cytometry, CHO cells stably expressing huPD-L1, 33.3 nM, PE anti-human Fc
T1 construct: whole, on cells; also called huPD-L1

human PD-L1 [2] = biological target: T1, human PD-L1; test: flow cytometry; MFI on CHO/PD-L1 over MFI on Jurkat (CD28), 33.3 nM
human CTLA-4 = biological target: T2, human CTLA-4 (human, UniProt P16410 36-223); test: flow cytometry, CHO cells stably expressing huCTLA4, 33.3 nM, PE anti-human Fc
T2 construct: whole, on cells; also called huCTLA4
T2 sequence (P16410 36-223): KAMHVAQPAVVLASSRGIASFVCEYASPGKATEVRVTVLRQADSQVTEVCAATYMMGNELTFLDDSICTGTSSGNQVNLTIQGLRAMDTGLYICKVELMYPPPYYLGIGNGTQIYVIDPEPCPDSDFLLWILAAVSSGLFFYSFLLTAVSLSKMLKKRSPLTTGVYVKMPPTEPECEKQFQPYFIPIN

[3] = biological target: T3, human PD-L1 (huPD-L1), full-length, stably expressed on CHO cells (human, UniProt Q9NZQ7 19-290); test: flow cytometry, CHO cells expressing huPD-L1
T3 construct: whole, on cells
T3 sequence (Q9NZQ7 19-290): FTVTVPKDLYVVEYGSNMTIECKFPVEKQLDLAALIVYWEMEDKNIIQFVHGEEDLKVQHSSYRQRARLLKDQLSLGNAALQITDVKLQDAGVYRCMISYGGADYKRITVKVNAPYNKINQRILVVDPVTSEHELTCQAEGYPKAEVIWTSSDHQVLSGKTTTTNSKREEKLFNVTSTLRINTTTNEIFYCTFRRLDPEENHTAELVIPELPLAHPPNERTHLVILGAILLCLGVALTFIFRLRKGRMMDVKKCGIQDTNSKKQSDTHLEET

[4] = biological target: T4, CD28, endogenously expressed on Jurkat/IL2 reporter cells (human, UniProt P10747 19-220); test: flow cytometry, Jurkat/IL2 reporter cells (endogenous CD28); MFI against WT CD80 of the table
T4 construct: whole, on cells

[5] = biological target: T5, human CTLA4 (huCTLA4), full-length, stably expressed on CHO cells (human, UniProt P16410 36-223); test: flow cytometry, CHO cells expressing huCTLA4; MFI against WT CD80 of the table
T5 construct: whole, on cells
T5 sequence (P16410 36-223): as the sequence (P16410 36-223) above

[6] = biological target: T3, human PD-L1 (huPD-L1), full-length, …; test: flow cytometry, CHO cells expressing huPD-L1; MFI against WT CD80 of the table
[7] = biological target: T5, human CTLA4 (huCTLA4), full-length, …; test: flow cytometry, CHO cells expressing huCTLA4
[8] = biological target: T3, human PD-L1 (huPD-L1), full-length, …; test: flow cytometry; MFI on PD-L1 CHO cells over MFI on Jurkat cells (CD28)
[9] = biological target: T4, CD28, endogenously expressed on …; test: flow cytometry, Jurkat/IL2 reporter cells (endogenous CD28)
human CD28 = biological target: T6, human CD28 (human, UniProt P10747 19-220); test: flow cytometry, Jurkat/IL2 reporter cells (endogenous CD28), 33.3 nM, PE anti-human Fc
T6 construct: whole, on cells; Endogenous CD28 of Jurkat/IL2 reporter cells

T1 sequence (Q9NZQ7 19-290): as the sequence (Q9NZQ7 19-290) above

Binder	Fold change to WT (human PD-L1 [1]) [fold]	MFI at 33.3 nM (human PD-L1 [1]) [MFI]	Ratio of PDL1:CD28 (human PD-L1 [2]) [ratio]	Fold change to WT CD80 (human CTLA-4) [fold]	MFI at 33.3 nM (human CTLA-4) [MFI]	MFI at 33.3 nM [3] [MFI]	Fold change to WT CD80 [4] [fold]	Fold change to WT CD80 [5] [fold]	Fold change to WT CD80 [6] [fold]	MFI at 33.3 nM [7] [MFI]	Ratio of PDL1:CD28 [8] [ratio]	MFI at 33.3 nM [9] [MFI]	Fold change to WT (human CD28) [fold]	MFI at 33.3 nM (human CD28) [MFI]
E35D/D46E/M47L/V68M/L85Q/F92L CD80 IgV-Fc (Fc fusion, not shown: a dimerising Fc or GST) VIHVTKEVKEVATLSCGHNVSVEELAQTRIYWQKDKKMVLTMMSGELNIWPEYKNRTIFDITNNLSIMILALRPSDEGTYECVVQKYEKDALKREHLAEVTLSVKAD	158	13200	863	0.2	214									
variant CD80 IgV-Fc E35D/T41S/D46E/M47I/V68M/K93R/E95V (Fc fusion, not shown: small tags and cut ends; a dimerising Fc or GST) VIHVTKEVKEVATLSCGHNVSVEELAQTRIYWQKDKKMVLSMMSGEINIWPEYKNRTIFDITNNLSIMILALRPSDEGTYECVVLKYEKDAFRRVHLAEVTLSVKAD						14800	15.2	10.5	287	18400	31.1	476		
H18Y/V22A/E35D/T41S/M47V/T62N/A71G/A91G CD80 IgV-Fc (Fc fusion, not shown: a dimerising Fc or GST) VIHVTKEVKEVATLSCGYNVSAEELAQTRIYWQKDKKMVLSMMSGDVNIWPEYKNRTIFDINNNLSIVILGLRPSDEGTYECVVLKYEKDGFKREHLAEVTLSVKAD	101	8460	5	10	10300								38.5	1590
E35D/M47L/V68M/A71G/L85Q/D90G CD80 IgV-Fc (Fc fusion, not shown: a dimerising Fc or GST) VIHVTKEVKEVATLSCGHNVSVEELAQTRIYWQKDKKMVLTMMSGDLNIWPEYKNRTIFDITNNLSIMILGLRPSDEGTYECVVQKYEKGAFKREHLAEVTLSVKAD	202	16800	12	10.1	10300								33.9	1400
Q33R/M47V/T62N/A71G CD80 IgV-Fc (Fc fusion, not shown: a dimerising Fc or GST) VIHVTKEVKEVATLSCGHNVSVEELAQTRIYWRKEKKMVLTMMSGDVNIWPEYKNRTIFDINNNLSIVILGLRPSDEGTYECVVLKYEKDAFKREHLAEVTLSVKAD	146	12200	719	0.3	308									

Now from value to binder:

Fold change to WT (human PD-L1 [1]) [fold]	MFI at 33.3 nM (human PD-L1 [1]) [MFI]	Ratio of PDL1:CD28 (human PD-L1 [2]) [ratio]	Fold change to WT CD80 (human CTLA-4) [fold]	MFI at 33.3 nM (human CTLA-4) [MFI]	MFI at 33.3 nM [3] [MFI]	Fold change to WT CD80 [4] [fold]	Fold change to WT CD80 [5] [fold]	Fold change to WT CD80 [6] [fold]	MFI at 33.3 nM [7] [MFI]	Ratio of PDL1:CD28 [8] [ratio]	MFI at 33.3 nM [9] [MFI]	Fold change to WT (human CD28) [fold]	MFI at 33.3 nM (human CD28) [MFI]	Binder
					12900	8.2	9	250	15800	50.1	257			variant CD80 IgV-Fc H18Y/V22D/E35D/M47V/N48K/V68M (Fc fusion, not shown: small tags and cut ends; a dimerising Fc or GST) VIHVTKEVKEVATLSCGYNVSDEELAQTRIYWQKDKKMVLTMMSGDVKIWPEYKNRTIFDITNNLSIMILALRPSDEGTYECVVLKYEKDAFKREHLAEVTLSVKAD
					14900	33.2	9.3	290	16300	14.3	1040			variant CD80 IgV-Fc H18Y/E35D/V68M/T79M/L85M (Fc fusion, not shown: small tags and cut ends; a dimerising Fc or GST) VIHVTKEVKEVATLSCGYNVSVEELAQTRIYWQKDKKMVLTMMSGDMNIWPEYKNRTIFDITNNLSIMILALRPSDEGMYECVVMKYEKDAFKREHLAEVTLSVKAD
